# Measurements reported in the supplement of paper PMC10567573.
# B1: TMEM106C (parent)
# chain: YVTTNVSLIPPRSEQLVNFTGKAE
# Variants of: B1
# Experiment: protein stability index of a GFP-peptide fusion (GPS, HEK-293T) (PSI 1-6); higher = more stable
# Conditions: c terminus: a fixed tail appended
# 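Further: lentivirally expressed fusions sorted by FACS into six bins by GFP to DsRed ratio, PSI derived from sequencing read proportions per bin multiplied by bin number.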
row,Variant,protein stability index
1,YVTTNVSLIPPRSWQLVNFTGKAE,2
2,YVTTNVSLIPPRSKQLVNFTGKAE,2.16
3,YVTTNVSLIPPRSGQLVNFTGKAE,1.59
4,YVTTNVSLIPPRSNQLVNFTGKAE,1.8
5,YVTTNVSLIPPRSQQLVNFTGKAE,1.5
6,YVTTNVSLIPPRSAQLVNFTGKAE,2.11
7,YVTTNVSLIPPRSRQLVNFTGKAE,1.87
8,YVTTNVSLIPPRSHQLVNFTGKAE,1.92
9,YVTTNVSLIPPRSYQLVNFTGKAE,2.19
10,YVTTNVSLIPPRSVQLVNFTGKAE,2
11,YVTTNVSLIPPRSLQLVNFTGKAE,2.27
12,YVTTNVSLIPPRSDQLVNFTGKAE,1.46
13,YVTTNVSLIPPRSSQLVNFTGKAE,1.79
14,YVTTNVSLIPPRSMQLVNFTGKAE,2.26
15,YVTTNVSLIPPRSTQLVNFTGKAE,2.79
16,YVTTNVSLIPPRSFQLVNFTGKAE,1.99
17,YVTTNVSLIPPRSIQLVNFTGKAE,2.17
18,YVTTNVSLIPPRSPQLVNFTGKAE,2.18
19,YVTTNVSLIPPTSEQLVNFTGKAE,2.09
20,YVTTNVSLIPPDSEQLVNFTGKAE,1.92
21,YVTTNVSLIPPHSEQLVNFTGKAE,1.85
22,YVTTNVSLIPPASEQLVNFTGKAE,2.85
23,YVTTNVSLIPPVSEQLVNFTGKAE,2.08
24,YVTTNVSLIPPISEQLVNFTGKAE,1.78

row,Variant,protein stability index
1,YVTTNVSLIPPKSEQLVNFTGKAE,1.9
2,YVTTNVSLIPPYSEQLVNFTGKAE,2.39
3,YVTTNVSLIPPCSEQLVNFTGKAE,1.86
4,YVTTNVSLIPPMSEQLVNFTGKAE,2.14
5,YVTTNVSLIPPNSEQLVNFTGKAE,1.83
6,YVTTNVSLIPPPSEQLVNFTGKAE,1.86
7,YVTTNVSLIPPFSEQLVNFTGKAE,2.75
8,YVTTNVSLIPPESEQLVNFTGKAE,1.9
9,YVTTNVSLIPPLSEQLVNFTGKAE,1.48
10,YVTTNVSLIPPQSEQLVNFTGKAE,2.1
11,YVTTNVSLIPPGSEQLVNFTGKAE,2.49
12,YVTTNVSLIPPSSEQLVNFTGKAE,2.23
13,YVTTNVSLIPPWSEQLVNFTGKAE,2.19
14,YVTTNVSLIPPRTEQLVNFTGKAE,1.74
15,YVTTNVSLIPPRFEQLVNFTGKAE,2.56
16,YVTTNVSLIPPRDEQLVNFTGKAE,1.57
17,YVTTNVSLIPPRLEQLVNFTGKAE,2.32
18,YVTTNVSLIPPRAEQLVNFTGKAE,2.22
19,YVTTNVSLIPPRYEQLVNFTGKAE,2.2
20,YVTTNVSLIPPRWEQLVNFTGKAE,1.18
21,YVTTNVSLIPPRNEQLVNFTGKAE,2.32
22,YVTTNVSLIPPRKEQLVNFTGKAE,1.55
23,YVTTNVSLIPPRGEQLVNFTGKAE,1.86
24,YVTTNVSLIPPRREQLVNFTGKAE,1.86

row,Variant,protein stability index
1,YVTTNVSLIPPRQEQLVNFTGKAE,1.72
2,YVTTNVSLIPPREEQLVNFTGKAE,1.88
3,YVTTNVSLIPPRPEQLVNFTGKAE,1.64
4,YVTTNVSLIPPRMEQLVNFTGKAE,2
5,YVTTNVSLIPPRCEQLVNFTGKAE,2.24
6,YVTTNVSLIPPRIEQLVNFTGKAE,1.62
7,YVTTNVSLIPPRHEQLVNFTGKAE,2.34
8,YVTTNVSLIPPRVEQLVNFTGKAE,2.07
9,YVTTNVSLIPFRSEQLVNFTGKAE,3.09
10,YVTTNVSLIPNRSEQLVNFTGKAE,2.37
11,YVTTNVSLIPQRSEQLVNFTGKAE,2.12
12,YVTTNVSLIPWRSEQLVNFTGKAE,3.67
13,YVTTNVSLIPIRSEQLVNFTGKAE,2.3
14,YVTTNVSLIPTRSEQLVNFTGKAE,1.74
15,YVTTNVSLIPYRSEQLVNFTGKAE,2.75
16,YVTTNVSLIPRRSEQLVNFTGKAE,1.41
17,YVTTNVSLIPERSEQLVNFTGKAE,1.72
18,YVTTNVSLIPSRSEQLVNFTGKAE,2.65
19,YVTTNVSLIPHRSEQLVNFTGKAE,1.97
20,YVTTNVSLIPVRSEQLVNFTGKAE,1.41
21,YVTTNVSLIPMRSEQLVNFTGKAE,1.45
22,YVTTNVSLIPARSEQLVNFTGKAE,1.6
23,YVTTNVSLIPKRSEQLVNFTGKAE,2.01
24,YVTTNVSLIPLRSEQLVNFTGKAE,1.51

row,Variant,protein stability index
1,YVTTNVSLIPGRSEQLVNFTGKAE,2.51
2,YVTTNVSLIPDRSEQLVNFTGKAE,2.11
3,YVTTNVSLIAPRSEQLVNFTGKAE,3.06
4,YVTTNVSLITPRSEQLVNFTGKAE,2.42
5,YVTTNVSLIQPRSEQLVNFTGKAE,2.26
6,YVTTNVSLIHPRSEQLVNFTGKAE,1.91
7,YVTTNVSLIEPRSEQLVNFTGKAE,1.66
8,YVTTNVSLIKPRSEQLVNFTGKAE,2.45
9,YVTTNVSLIGPRSEQLVNFTGKAE,3.2
10,YVTTNVSLIMPRSEQLVNFTGKAE,2.82
11,YVTTNVSLILPRSEQLVNFTGKAE,1.86
12,YVTTNVSLICPRSEQLVNFTGKAE,2.58
13,YVTTNVSLIRPRSEQLVNFTGKAE,3
14,YVTTNVSLIFPRSEQLVNFTGKAE,2.74
15,YVTTNVSLIWPRSEQLVNFTGKAE,2.56
16,YVTTNVSLIDPRSEQLVNFTGKAE,1.46
17,YVTTNVSLIVPRSEQLVNFTGKAE,3.38
18,YVTTNVSLINPRSEQLVNFTGKAE,2.78
19,YVTTNVSLISPRSEQLVNFTGKAE,1.82
20,YVTTNVSLIIPRSEQLVNFTGKAE,2.65
21,YVTTNVSLIYPRSEQLVNFTGKAE,2.88
22,YVTTNVSLIPPRSEQPVNFTGKAE,2.55
23,YVTTNVSLIPPRSEQNVNFTGKAE,1.66
24,YVTTNVSLIPPRSEQTVNFTGKAE,1.79

row,Variant,protein stability index
1,YVTTNVSLIPPRSEQWVNFTGKAE,2.26
2,YVTTNVSLIPPRSEQKVNFTGKAE,1.9
3,YVTTNVSLIPPRSEQHVNFTGKAE,1.49
4,YVTTNVSLIPPRSEQEVNFTGKAE,2.1
5,YVTTNVSLIPPRSEQRVNFTGKAE,1.95
6,YVTTNVSLIPPRSEQDVNFTGKAE,2.05
7,YVTTNVSLIPPRSEQVVNFTGKAE,1.34
8,YVTTNVSLIPPRSEQAVNFTGKAE,2.14
9,YVTTNVSLIPPRSEQFVNFTGKAE,1.88
10,YVTTNVSLIPPRSEQGVNFTGKAE,1.81
11,YVTTNVSLIPPRSEQYVNFTGKAE,1.73
12,YVTTNVSLIPPRSEQCVNFTGKAE,2.16
13,YVTTNVSLIPPRSEQSVNFTGKAE,1.91
14,YVTTNVSLIPPRSEQQVNFTGKAE,1.92
15,YVTTNVSLIPPRSEQMVNFTGKAE,2.02
16,YVTTNVSLIPPRSEQIVNFTGKAE,2.23
17,YVTTNVSLIPPRSEQLVNNTGKAE,2
18,YVTTNVSLIPPRSEQLVNGTGKAE,1.39
19,YVTTNVSLIPPRSEQLVNPTGKAE,2.03
20,YVTTNVSLIPPRSEQLVNKTGKAE,2.25
21,YVTTNVSLIPPRSEQLVNATGKAE,2.03
22,YVTTNVSLIPPRSEQLVNHTGKAE,2.56
23,YVTTNVSLIPPRSEQLVNCTGKAE,2.06
24,YVTTNVSLIPPRSEQLVNETGKAE,2.7

row,Variant,protein stability index
1,YVTTNVSLIPPRSEQLVNITGKAE,2.02
2,YVTTNVSLIPPRSEQLVNMTGKAE,1.9
3,YVTTNVSLIPPRSEQLVNLTGKAE,1.96
4,YVTTNVSLIPPRSEQLVNDTGKAE,2.01
5,YVTTNVSLIPPRSEWLVNFTGKAE,1.86
6,YVTTNVSLIPPRSELLVNFTGKAE,2.69
7,YVTTNVSLIPPRSETLVNFTGKAE,2.23
8,YVTTNVSLIPPRSEILVNFTGKAE,2.37
9,YVTTNVSLIPPRSESLVNFTGKAE,1.96
10,YVTTNVSLIPPRSEFLVNFTGKAE,1.5
11,YVTTNVSLIPPRSEYLVNFTGKAE,2.69
12,YVTTNVSLIPPRSEELVNFTGKAE,2.07
13,YVTTNVSLIPPRSEPLVNFTGKAE,2.28
14,YVTTNVSLIPPRSEHLVNFTGKAE,2.33
15,YVTTNVSLIPPRSEDLVNFTGKAE,2.08
16,YVTTNVSLIPPRSECLVNFTGKAE,2.24
17,YVTTNVSLIPPRSEMLVNFTGKAE,1.7
18,YVTTNVSLIPPRSERLVNFTGKAE,1.74
19,YVTTNVSLIPPRSEGLVNFTGKAE,2.37
20,YVTTNVSLIPPRSEVLVNFTGKAE,2.17
21,YVTTNVSLIPPRSENLVNFTGKAE,1.55
22,YVTTNVSLIPPRSEALVNFTGKAE,1.5
23,YVTTNVSLIPPRSEKLVNFTGKAE,1.43
24,YVTTNVSLYPPRSEQLVNFTGKAE,2.32

row,Variant,protein stability index
1,YVTTNVSLTPPRSEQLVNFTGKAE,2.43
2,YVTTNVSLSPPRSEQLVNFTGKAE,1.71
3,YVTTNVSLWPPRSEQLVNFTGKAE,1.75
4,YVTTNVSLPPPRSEQLVNFTGKAE,1.81
5,YVTTNVSLVPPRSEQLVNFTGKAE,1.51
6,YVTTNVSLQPPRSEQLVNFTGKAE,1.61
7,YVTTNVSLRPPRSEQLVNFTGKAE,1.99
8,YVTTNVSLIPPRSEQLVHFTGKAE,2.38
9,YVTTNVSLIPPRSEQLVWFTGKAE,3.06
10,YVTTNVSLIPPRSEQLVLFTGKAE,2.14
11,YVTTNVSLIPPRSEQLVKFTGKAE,2.71
12,YVTTNVSLIPPRSEQLVAFTGKAE,2.02
13,YVTTNVSLIPPRSEQLVDFTGKAE,3.25
14,YVTTNVSLIPPRSEQLVRFTGKAE,2.33
15,YVTTNVSLIPPRSEQLVIFTGKAE,3.13
16,YVTTNVSLIPPRSEQLVPFTGKAE,2.4
17,YVTTNVSLIPPRSEQLVMFTGKAE,2.37
18,YVTTNVSLIPPRSEQLVFFTGKAE,2.28
19,YVTTNVSLIPPRSEQLVTFTGKAE,1.62
20,YVTTNVSLIPPRSEQLVVFTGKAE,1.81
21,YVTTNVSLIPPRSEQLVCFTGKAE,1.95
22,YVTTNVSLIPPRSEQLVQFTGKAE,2.07
23,YVTTNVSLIPPRSEQLVSFTGKAE,2.36
24,YVTTNVSLIPPRSEQLVGFTGKAE,1.7

row,Variant,protein stability index
1,YVTTNVSLIPPRSEQLVEFTGKAE,1.3
2,YVTTNVSLIPPRSEQLENFTGKAE,2.24
3,YVTTNVSLIPPRSEQLDNFTGKAE,2.2
4,YVTTNVSLIPPRSEQLQNFTGKAE,3.85
5,YVTTNVSLIPPRSEQLTNFTGKAE,1.91
6,YVTTNVSLIPPRSEQLGNFTGKAE,1.98
7,YVTTNVSLIPPRSEQLYNFTGKAE,2.44
8,YVTTNVSLIPPRSEQLPNFTGKAE,2.31
9,YVTTNVSLIPPRSEQLLNFTGKAE,2.3
10,YVTTNVSLIPPRSEQLANFTGKAE,1.84
11,YVTTNVSLIPPRSEQLMNFTGKAE,2.04
12,YVTTNVSLIPPRSEQLFNFTGKAE,2.88
13,YVTTNVSLIPPRSEQLCNFTGKAE,2.19
14,YVTTNVSLIPPRSEQLHNFTGKAE,2.1
15,YVTTNVSLIPPRSEQLRNFTGKAE,1.41
16,YVTTNVSLIPPRSEQLNNFTGKAE,1.62
17,YVTTNVSLIPPRSEQLSNFTGKAE,1.55
18,YVTTNVSLIPPRSEQLWNFTGKAE,3.01
19,YVTTNVSLIPPRSEQLINFTGKAE,2.24
20,YVTTNVSLIPPRSEQLKNFTGKAE,2.83
